Laboratory results: publication PMC7335163

Target: GFP-tagged R2910Q UNC80 mutant (mouse) (mouse) (UniProt Q8BLN6)
Assay: co-IP; HEK293T co-transfected with NALCN or UNC79 and GFP-tagged UNC80 constructs; IP with anti-GFP, blot anti-NALCN or anti-UNC79; RIPA buffer (IP buffer with 0.5% deoxycholate and 0.1% SDS); 4 °C (Fig. 8a-c, f, g)

Chain of UniProt Q8BLN6 (Q8BLN6 whole entry R2910Q): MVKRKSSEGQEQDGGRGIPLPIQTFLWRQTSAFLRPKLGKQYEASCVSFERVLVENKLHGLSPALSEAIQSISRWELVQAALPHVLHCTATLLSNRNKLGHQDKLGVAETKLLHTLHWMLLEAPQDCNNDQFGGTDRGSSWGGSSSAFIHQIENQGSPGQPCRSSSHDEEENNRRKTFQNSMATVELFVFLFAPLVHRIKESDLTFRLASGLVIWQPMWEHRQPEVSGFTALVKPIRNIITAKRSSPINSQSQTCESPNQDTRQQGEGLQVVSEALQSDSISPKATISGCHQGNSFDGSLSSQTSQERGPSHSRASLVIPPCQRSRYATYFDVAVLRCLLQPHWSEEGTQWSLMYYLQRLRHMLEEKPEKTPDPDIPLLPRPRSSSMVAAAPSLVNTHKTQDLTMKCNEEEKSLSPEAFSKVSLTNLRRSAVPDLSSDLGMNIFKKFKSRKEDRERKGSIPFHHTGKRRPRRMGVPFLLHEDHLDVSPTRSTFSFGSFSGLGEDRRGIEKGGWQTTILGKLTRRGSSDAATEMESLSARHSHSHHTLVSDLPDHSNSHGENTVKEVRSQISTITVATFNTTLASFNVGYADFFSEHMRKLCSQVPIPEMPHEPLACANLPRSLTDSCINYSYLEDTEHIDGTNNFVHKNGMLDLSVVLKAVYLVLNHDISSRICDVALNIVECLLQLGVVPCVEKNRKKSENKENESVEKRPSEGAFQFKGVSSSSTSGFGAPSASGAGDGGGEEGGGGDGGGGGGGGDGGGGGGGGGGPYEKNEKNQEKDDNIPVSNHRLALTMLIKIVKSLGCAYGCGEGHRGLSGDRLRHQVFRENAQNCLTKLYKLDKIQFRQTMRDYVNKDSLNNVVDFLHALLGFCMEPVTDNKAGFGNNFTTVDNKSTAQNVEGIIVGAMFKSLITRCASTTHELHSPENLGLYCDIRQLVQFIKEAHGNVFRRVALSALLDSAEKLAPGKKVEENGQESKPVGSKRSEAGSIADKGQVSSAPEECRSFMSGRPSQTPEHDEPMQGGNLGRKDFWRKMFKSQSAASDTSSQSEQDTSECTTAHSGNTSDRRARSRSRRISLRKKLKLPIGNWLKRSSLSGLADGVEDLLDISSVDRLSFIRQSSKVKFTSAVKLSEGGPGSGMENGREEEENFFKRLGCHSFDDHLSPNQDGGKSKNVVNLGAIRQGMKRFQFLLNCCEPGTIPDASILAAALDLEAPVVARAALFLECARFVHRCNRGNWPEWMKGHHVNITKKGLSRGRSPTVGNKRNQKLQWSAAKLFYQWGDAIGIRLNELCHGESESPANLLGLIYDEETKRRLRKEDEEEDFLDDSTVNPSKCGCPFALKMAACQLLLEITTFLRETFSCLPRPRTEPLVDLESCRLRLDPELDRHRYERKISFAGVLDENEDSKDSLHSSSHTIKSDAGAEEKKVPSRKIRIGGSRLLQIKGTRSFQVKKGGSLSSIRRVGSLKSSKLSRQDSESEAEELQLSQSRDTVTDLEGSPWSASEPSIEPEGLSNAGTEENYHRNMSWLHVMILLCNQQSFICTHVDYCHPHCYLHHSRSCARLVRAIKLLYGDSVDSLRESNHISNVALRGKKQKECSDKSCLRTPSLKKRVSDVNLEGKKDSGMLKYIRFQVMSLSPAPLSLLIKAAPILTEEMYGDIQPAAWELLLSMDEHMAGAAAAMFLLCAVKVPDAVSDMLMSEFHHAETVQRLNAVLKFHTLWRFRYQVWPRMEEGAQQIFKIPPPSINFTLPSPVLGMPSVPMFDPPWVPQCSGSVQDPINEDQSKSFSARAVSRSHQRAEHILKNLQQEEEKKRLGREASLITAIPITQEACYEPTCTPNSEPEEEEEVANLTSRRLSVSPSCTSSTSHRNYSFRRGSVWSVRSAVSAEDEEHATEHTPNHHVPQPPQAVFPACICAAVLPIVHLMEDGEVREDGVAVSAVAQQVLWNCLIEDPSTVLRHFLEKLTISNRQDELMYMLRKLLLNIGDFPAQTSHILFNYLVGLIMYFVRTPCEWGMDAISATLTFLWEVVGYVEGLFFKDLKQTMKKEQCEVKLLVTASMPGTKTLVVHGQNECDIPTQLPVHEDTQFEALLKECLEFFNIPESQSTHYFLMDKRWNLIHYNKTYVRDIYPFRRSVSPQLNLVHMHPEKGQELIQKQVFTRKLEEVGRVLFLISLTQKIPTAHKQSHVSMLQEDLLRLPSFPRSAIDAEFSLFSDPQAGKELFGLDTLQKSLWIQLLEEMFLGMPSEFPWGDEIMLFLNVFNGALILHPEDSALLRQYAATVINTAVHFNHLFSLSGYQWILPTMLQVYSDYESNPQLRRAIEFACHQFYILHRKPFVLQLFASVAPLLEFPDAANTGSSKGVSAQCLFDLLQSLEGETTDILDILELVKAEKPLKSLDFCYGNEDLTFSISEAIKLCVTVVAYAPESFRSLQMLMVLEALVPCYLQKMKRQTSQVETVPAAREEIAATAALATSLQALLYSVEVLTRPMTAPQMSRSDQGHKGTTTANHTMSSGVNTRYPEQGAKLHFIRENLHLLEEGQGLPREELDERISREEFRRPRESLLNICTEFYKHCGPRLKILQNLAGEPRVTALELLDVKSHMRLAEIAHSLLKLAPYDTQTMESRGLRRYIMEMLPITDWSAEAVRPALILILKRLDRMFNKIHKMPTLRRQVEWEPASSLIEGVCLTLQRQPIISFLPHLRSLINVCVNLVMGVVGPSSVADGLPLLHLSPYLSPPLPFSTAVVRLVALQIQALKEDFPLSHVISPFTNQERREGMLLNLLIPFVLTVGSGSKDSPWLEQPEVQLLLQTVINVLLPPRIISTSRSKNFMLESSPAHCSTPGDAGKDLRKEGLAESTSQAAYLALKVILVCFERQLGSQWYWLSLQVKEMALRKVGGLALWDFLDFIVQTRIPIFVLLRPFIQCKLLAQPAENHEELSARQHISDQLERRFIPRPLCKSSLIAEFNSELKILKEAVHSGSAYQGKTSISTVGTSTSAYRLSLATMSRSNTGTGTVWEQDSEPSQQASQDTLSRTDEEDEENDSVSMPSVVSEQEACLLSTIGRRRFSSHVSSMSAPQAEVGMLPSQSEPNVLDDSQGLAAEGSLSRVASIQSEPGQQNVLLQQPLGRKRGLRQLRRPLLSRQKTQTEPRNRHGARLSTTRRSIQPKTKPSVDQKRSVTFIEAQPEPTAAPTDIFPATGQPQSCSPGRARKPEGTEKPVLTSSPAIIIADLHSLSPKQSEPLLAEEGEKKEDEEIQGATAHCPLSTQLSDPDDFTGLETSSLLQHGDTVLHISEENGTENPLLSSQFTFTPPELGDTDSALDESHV

- reduction of apparent UNC80–UNC79 affinity (co-precipitated UNC79) against WT UNC80: 60%
Substance: UNC79 (mouse), wild type, non-tagged, Q0KK59 1-2596
